Laboratory results: article PMC3985465

Target: L′LKAAμ thiopeptide (thioleucine-Leu-Lys-Ala-Ala-7-methoxycoumarin-4-ylalanine)
Assay: stopped-flow fluorescence kinetics
Conditions: other: stopped-flow fluorescence kinetics (global fit to a three-step scheme)

B1: Papain (crude, from papaya latex) (protein)
chain: IPEYVDWRQKGAVTPVKNQGSCGSCWAFSAVVTIEGIIKIRTGNLNEYSEQELLDCDRRSYGCNGGYPWSALQLVAQYGIHYRNTYPYEGVQRYCRSREKGPYAAKTDGVRQVQPYNEGALLYSIANQPVSVVLEAAGKDFQLYRGGIFVGPCGNKVDHAVAAVGYGPNYILIKNSWGTGWGENGYIRIKRGTGNSYGVCGLYTSSFYPVKN
KS (enzyme-substrate complex, first step of the three-step scheme): KS = k1/k–1 = 921 μM
